Among the data in PMC2889927 are OCH-tet (MFI) values, retold here.

Experiment in all cases: flow cytometry on cells; PE-conjugated OCH-loaded human CD1d tetramers on human iNKT clones; 4°C, 45 min; mean fluorescence intensity
For orientation: A flow cytometer gives signals particle by particle.

The target in test [1] is TCR of the human iNKT clone 4C866, on the cells of the clone (human).
For test [2], the target named is TCR of the human iNKT clone 4C862, on the cells of the clone (human).
Test [3] concerns the target TCR of the human iNKT clone DN347, on the cells of the clone (human).
Test [4] deals with TCR of the human iNKT clone 4C1369, on the cells of the clone (human).
The target in test [5] is TCR of the human iNKT clone 4C1227, on the cells of the clone (human).

B1: PE-conjugated human CD1d tetramer loaded with OCH (complex)
chain: EVPQRLFPLRCLQISSFANSSWTRTDGLAWLGELQTHSWSNDSDTVRSLKPWSQGTFSDQQWETLQHIFRVYRSSFTRDVKEFAKMLRLSYPLELQVSAGCEVHPGNASNNFFHVAFQGKDILSFQGTSWEPTQEAPLWVNLAIQVLNQDKWTRETVQWLLNGTCPQFVSGLLESGKSELKKQVKPKAWLSRGPSPGPGRLLLVCHVSGFYPKPVWVKWMRGEQEQQGTQPGDILPNADETWYLRATLDVVAGEAAGLSCRVKHSSLEGQDIVLYWGGSYTSMGLIALAVLACLLFLLIVGFTSRFKRQTSYQGVL
As to B1, the OCH-tet (MFI) in test [1] was determined as 866 MFI; in test [2], 862 MFI; in test [3], 347 MFI; in test [4], 1370 MFI; in test [5], 1230 MFI.
